Source: patent publication US20240400716A1 (UNIVERSITY OF PITTSBURGH OF THE COMMONWEALTH SYSTEM OF …, published 2024)

B1: Clone #1 (scFv) (scFv)
scFv: QVTLKESGAEVKKPGESLKISCKASGYSFTNYWIGWVRQMPGKGLEWMGIIYPGDSDTRYSPSFQGQVTISADKSISTAYLQWSSLKASDTAMYYCARQGGYYYGMDVWGQGTTVTVSSGGGGSGGSGSGGGGSVPVLTQPHSVSESPGKTVTISCTRSSGSIASNYVQWYQQRPGSSPTTVIYEDNQRPSGVPDRFSGSIDMSSNSASLTISGLRTEDEGDYYCQSYDSRNHVVFGGGTQLTVLG
B2: Clone #3 (VH domain) (VHH)
VHH: EVQLVESGGGVVQPGRSLRLSCAASGFTFSSYAMHWVRQAPGKGLEWVATIYQDGSESEYVDSVKGRFTVSRDNAKNTLYLQMDSLRAEDTATYYCVGRGSTSITPVWGLGTLVTVSS
notes: Single human VH antibody domain from a phage library, not camelid; also called VH-Z4D2
B3: Clone #4 (VH domain) (VHH)
VHH: EVQLVESGGGVVQPGRSLRLSCAASGFTFSSYAMHWVRQAPGKGLEWVATIYQDGSESEYVDSVKGRFTVSRDDAKNTLYLQMDSLRAEDTATYYCVGRDSTSITPVWGLGTLVTVSS
notes: Single human VH antibody domain from a phage library, not camelid; also called VH-Fla; VH-F1a
B4: Clone #5 (VH domain) (VHH)
VHH: EVQLVESGGGMVQPGRSLRLSCAASGFTFSSYAMHWIRQAPGKGLEWVATIYQDGSESEYVDSVKGRFAVSRDNAKNTLYLQMDSLRAEDTATYYCVGRASASITPVWGLGTLVTVSS
notes: Single human VH antibody domain from a phage library, not camelid
B5: Clone #10 (VH domain) (VHH)
VHH: EVQMVESGGGVVQPGRSLRLSCAASGFTFSSYAMHWVRQAPGKGLEWVATIYQDGSESEYVDSVKGRFTVSIDNAKNTLYLQMDSLRAEDTATYYCVGRDSTSITPVWGLGTLVTVSS
notes: as for B4
B6: Clone #11 (VH domain) (VHH)
VHH: EVQLVESGGGVVQPGRSLRLSCAASGFTFSSYAMHWVRQAPGKGLEWVATIYQDGSESEYVDSVKGRFTVSIDNAKNTLYLQMDSLRAEDTATYYCVGRASTSITPVWGLGTLVTVSS
notes: as for B4
B7: Clone #2 (scFv) (scFv)
scFv: QVQLQQSGAEVKKPGESLKISCKGSGYSFTNHWIAWVRQMPGKGLEWMGIIYPGDSDTRYSPSFQGQVTISADKSISTAYLQWSSLKASDTAMYYCARAQVGAFDIWGQGTMVTVSSGGGGSGGSGSSGGGSQSALTQPASVSGSPGQSITISCTRARDDVGGDNFVSWYQQHPGKAPKLMIYDVSNRPSGVSNRFSGSKSGNTASLTISGLQAEDEADYYCSSYTSSSTLPVFGGGTQLTVLG
B8: Clone #6 (VH domain) (VHH)
VHH: EVQLVESGGGLVQPGGSLRLSCTVSGFTFSSYAVSWVRQAPGQGLEWVSAIGAGGGTYYADSVKGRFTISRDNSKNTLYLQMNSLRAEDTAVYYCAKDGADWGQGTLVTVSS
notes: Single human VH antibody domain from a phage library, not camelid; also called VH-W5A4
B9: Clone #7 (VH domain) (VHH)
VHH: EVQLVESGGGLVQPGGSLRLSCTVSGFTFSSYAVSWVRQAPGQGLEWVSAIGAGGGTYYADSVKGRFTISRDNSKNTLYLQMNSLRAEDTAVYYCAKDGVDWGQGTLVTVSS
notes: as for B4
B10: Clone #8 (VH domain) (VHH)
VHH: EVQLVESGGGLVQPGGSLRLSCTVSGFTFSSYAVSWVRQAPGQGLEWVSSIGAGGGTYYADSVKGRFTISRDNSKNTLYLQMNSLRAEDTAVYYCAKDGADWGQGTLVTVSS
notes: as for B4
B11: Clone #9 (VH domain) (VHH)
VHH: EVQLVESGGGLVQPGGSLRLSCTVSGFTFDDYAVSWVRQAPGQGLEWVSSIGAGGGTYYADSVKGRFTISRDDSKDTLYLQMNSLRAEDTAVYYCAKDGVDWGQGTLVTVSS
notes: Single human VH antibody domain from a phage library, not camelid; also called VH-4mut

biological target: T1, human PSMA polypeptide (prostate specific membrane antigen) (human, UniProt Q04609 1-750); experiment: binding to LNCaP cells expressing PSMA
T1 construct: also called PSMA protein
T1 sequence (Q04609 whole entry): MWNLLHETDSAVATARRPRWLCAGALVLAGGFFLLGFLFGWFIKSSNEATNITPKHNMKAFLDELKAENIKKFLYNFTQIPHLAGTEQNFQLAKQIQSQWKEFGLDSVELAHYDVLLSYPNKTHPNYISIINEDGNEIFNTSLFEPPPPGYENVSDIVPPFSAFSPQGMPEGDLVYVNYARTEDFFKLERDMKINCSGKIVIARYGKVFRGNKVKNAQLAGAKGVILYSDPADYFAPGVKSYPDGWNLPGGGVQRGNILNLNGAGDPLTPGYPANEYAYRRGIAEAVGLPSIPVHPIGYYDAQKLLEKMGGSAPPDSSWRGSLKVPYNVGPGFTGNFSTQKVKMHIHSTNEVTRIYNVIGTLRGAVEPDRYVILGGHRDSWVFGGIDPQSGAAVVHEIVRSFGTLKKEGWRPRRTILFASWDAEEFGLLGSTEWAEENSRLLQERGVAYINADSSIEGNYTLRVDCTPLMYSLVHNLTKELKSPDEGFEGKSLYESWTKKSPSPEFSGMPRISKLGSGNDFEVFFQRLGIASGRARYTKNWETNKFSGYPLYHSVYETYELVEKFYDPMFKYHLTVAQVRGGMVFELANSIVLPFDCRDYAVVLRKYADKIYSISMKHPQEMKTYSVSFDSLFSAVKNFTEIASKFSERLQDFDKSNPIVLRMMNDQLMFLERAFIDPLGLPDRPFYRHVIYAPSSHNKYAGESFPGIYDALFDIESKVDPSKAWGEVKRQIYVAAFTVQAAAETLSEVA
Protocol: Binding affinity and specificity to a human PSMA polypeptide were tested using LNCaP cells expressing the PSMA protein.

B1 and B2 are within 1.5-fold of each other in EC50: 6.56 nM for the first, 4.59 nM for the second.

B3 and B4 are within 1.5-fold of each other in EC50: 3.05 nM for the first, 2.95 nM for the second.

First: B5
Second: B6
The EC50 of the first is 4.8-fold higher: 8.7 nM for the first, 1.81 nM for the second.

Going from B7 to B8, the EC50 rises from 8.97 nM to 32.7 nM (3.6-fold). The first is the more potent here.

B9 and B10 are within 1.5-fold of each other in EC50: 8.65 nM for the first, 10.8 nM for the second.

B11 showed an EC50 of 15.1 nM.
